In this data set the target is His-HAT1 (Homo sapiens) (UniProt O14929). In words: ELONA. The conditions noted are these: ELONA: PBS + 1 mM MgCl2 (selection buffer), 37 °C, 1 h; 100 ng HAT1/well adsorbed; 0.2% BSA block; aptamers heated 95 °C 10 min then ice 10 min.
UniProt O14929, sequence (O14929 whole entry): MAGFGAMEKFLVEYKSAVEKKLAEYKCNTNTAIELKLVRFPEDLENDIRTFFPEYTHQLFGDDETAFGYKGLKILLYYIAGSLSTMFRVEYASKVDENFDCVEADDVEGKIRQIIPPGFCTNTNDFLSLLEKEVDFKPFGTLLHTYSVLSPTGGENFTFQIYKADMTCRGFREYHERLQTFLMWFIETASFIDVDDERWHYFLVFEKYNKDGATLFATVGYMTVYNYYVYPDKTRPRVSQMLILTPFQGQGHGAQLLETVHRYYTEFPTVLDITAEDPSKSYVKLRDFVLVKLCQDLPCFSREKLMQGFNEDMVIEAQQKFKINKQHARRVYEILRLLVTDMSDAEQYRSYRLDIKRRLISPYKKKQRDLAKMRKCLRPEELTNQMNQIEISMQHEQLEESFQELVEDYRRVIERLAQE

Regarding “GCGGATGAAGACTGGTGTCGAGGGGGGGGCGGGCGGGTGGGTTGGCTCTTCATGCCTGTGCCC [apHAT63T]”, the Kd (usually the equilibrium constant for the complex coming apart) amounted to 43.7 nM. Turning to “GCGGATGAAGACTGGTGTCGAGGGGGGGGCGGGCGGGTGGGTTGGCTCTTCATGCCTGTGCCCTAAATACGAGCAAC [apHAT63 (63F)]”, the Kd was determined as 38 nM. Regarding “GTTGCTCGTATTTAGGGCGGGGGGGCGGGGGAGGAGGTGGCGGGAATATCCATTGTCTACACCAGTCTTCATCCGC [apHAT610 (610R)]”, the Kd came to 28.1 nM.

Source of the values: paper PMC9818519.
